Experiment [1] concerns the target T1, mouse SIRPA expressed on CHO cells (mouse, UniProt P97797 32-513).
T1 construct: also called CHO-mSIRPA; CHO-MuSIRPα
T1 sequence: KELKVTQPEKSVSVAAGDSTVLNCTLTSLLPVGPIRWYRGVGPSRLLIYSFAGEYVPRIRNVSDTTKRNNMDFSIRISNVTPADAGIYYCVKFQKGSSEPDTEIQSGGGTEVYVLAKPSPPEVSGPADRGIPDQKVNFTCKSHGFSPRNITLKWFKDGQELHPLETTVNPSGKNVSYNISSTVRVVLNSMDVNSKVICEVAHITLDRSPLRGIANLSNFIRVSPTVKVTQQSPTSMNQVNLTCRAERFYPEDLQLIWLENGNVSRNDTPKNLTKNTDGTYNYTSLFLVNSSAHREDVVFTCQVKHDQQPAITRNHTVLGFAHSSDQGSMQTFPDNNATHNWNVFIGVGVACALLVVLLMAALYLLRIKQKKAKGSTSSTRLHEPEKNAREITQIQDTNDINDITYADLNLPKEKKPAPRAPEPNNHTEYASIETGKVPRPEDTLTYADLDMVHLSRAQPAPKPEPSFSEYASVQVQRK
The experiment is described as follows: flow cytometry on CHO-MuSIRPα cells. (In general: A flow cytometer gives signals particle by particle.)

Experiment [2] has as its target T2, human SIRPA expressed on cells (human, UniProt P78324 31-504). The experiment is described as follows: flow cytometry on CHO-HuSIRPα cells. The protocol:
Initial characterization of SIRPA antibodies involved screening their ability to bind the human receptor ectopically expressed on the rodent Chinese hamster ovary cell line, henceforth referred to as CHO-huSIRPA, followed by screening on primary human macrophages. Cells were harvested, plated at 10⁵ cells/well in a 96-well plate, washed, and incubated in 100 μl FACS buffer containing Fc blocking reagent and […] of indicated monoclonal antibody. Cells were then washed twice and incubated in FACS buffer containing APC-conjugated secondary antibody diluted 1:200 for 30 minutes on ice. Cells were washed twice in cold FACS buffer and acquired on a BD FACS Canto. Data analysis and calculation of mean fluorescence intensity (MFI) values or % positive cells was performed with FlowJo (TreeStar) software version 10.0.7.

The target of experiment [3] is T3, recombinant soluble human SIRPA antigen, His-tagged (human, UniProt P78324 31-373).
T3 construct: also called His-tagged soluble HuSIRPA protein; monomeric human SIRPA antigen; not shown: His tag
The experiment is described as follows: SPR, Biacore T200, antibody captured by anti-mouse IgG on CM5, soluble human SIRPA in solution, 1:1 fit. The protocol: Binding studies were performed using a Biacore T200 (GE). An anti-mouse IgG capture antibody was amine coupled to a CM5 sensor chip using standard NHS/EDC activation. SIRPA antibodies were diluted to 50 nM in 1×HBS-EP+ running buffer and captured onto sensor chip surface. Serial dilutions of recombinant soluble human SIRPA antigen were injected over captured SIRPA antibodies to record sensorgram traces. Data were processed by subtracting RU values from the reference cell as well as the buffer injections.

The target of experiment [4] is T2, human SIRPA expressed on cells. Nature of the experiment: cell-based or functional assay.
Experiment [5] deals with T4, human SIRPA-DAP12 chimera expressed on BWZ/NFAT-luciferase reporter cells (human, UniProt O43914 62-113, limits assumed).
T4 construct: domain: intracellular ITAM motif; The intracellular ITIM motif of SIRPA was substituted with the intracellular ITAM motif of DAP12; also called BWZ-huSIRPA; BWZ-HuSIRPA
The experiment is described as follows: flow cytometry on BWZ-Human SIRPA cells, titrated antibody detected with anti-mouse IgG APC (Relative MFI).

The target of experiment [6] is T2, human SIRPA expressed on cells. Nature of the experiment: flow cytometry titration on CHO-huSIRPA cells at 4 C. Here is the method: Serial dilutions of monoclonal antibodies were added to 10⁵ CHO-huSIRPA cells and allowed to achieve binding equilibrium at 4° C. After addition of fluorescently labeled secondary antibody and brief washing steps, MFI values as a function of titrated antibody concentration was recorded via FACS analysis (FIG. 3D). Curves were fit using nonlinear regression analysis with Graphpad Prism 6 software.

Experiment [7] addresses T1, mouse SIRPA expressed on CHO cells. Nature of the experiment: flow cytometry on CHO-mSIRPA cells.

T3 sequence (P78324 31-373 limits assumed): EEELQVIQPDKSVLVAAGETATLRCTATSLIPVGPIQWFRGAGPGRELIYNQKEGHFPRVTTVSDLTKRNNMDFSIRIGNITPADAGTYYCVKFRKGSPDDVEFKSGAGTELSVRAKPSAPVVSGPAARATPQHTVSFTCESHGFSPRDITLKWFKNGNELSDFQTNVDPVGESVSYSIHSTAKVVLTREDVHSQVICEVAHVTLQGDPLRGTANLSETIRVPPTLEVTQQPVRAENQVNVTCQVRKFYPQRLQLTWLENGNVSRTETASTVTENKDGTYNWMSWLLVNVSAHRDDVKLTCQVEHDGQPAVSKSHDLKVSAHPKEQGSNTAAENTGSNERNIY
T2 sequence (P78324 31-504): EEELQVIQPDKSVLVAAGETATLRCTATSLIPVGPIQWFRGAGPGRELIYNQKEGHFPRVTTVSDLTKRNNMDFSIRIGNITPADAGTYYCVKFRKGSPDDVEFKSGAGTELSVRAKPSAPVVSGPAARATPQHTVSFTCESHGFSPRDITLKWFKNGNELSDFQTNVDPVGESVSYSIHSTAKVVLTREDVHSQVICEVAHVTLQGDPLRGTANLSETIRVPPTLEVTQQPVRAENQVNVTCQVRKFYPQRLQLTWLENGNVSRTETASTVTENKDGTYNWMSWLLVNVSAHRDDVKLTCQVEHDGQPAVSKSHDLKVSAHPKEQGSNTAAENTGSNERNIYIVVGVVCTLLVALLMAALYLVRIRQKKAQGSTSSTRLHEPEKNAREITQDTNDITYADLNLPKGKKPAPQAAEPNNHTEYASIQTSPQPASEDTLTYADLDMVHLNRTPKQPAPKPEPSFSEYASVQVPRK

For mouse IgG1 isotype control (antibody), the MFI, fold over background (fold over background) in experiment [1] and in experiment [2] was 1 each time.

B1: 3F9 (antibody, IgG1, V domains shown)
VH: EVKLVESGGGLVKPGGSLKLSCAASGFTFSSYAMSWVRQTPEKRLEWVATISDYGGSYTYYPDSVKGRFTISRDNAKYTLYLQMSSLRSEDTALYYCARPPYDDYYGGFAYWGQGTLVTVSA
VL: DIVLTQSPASLAVSLGQRATISCRASKSVSSSGYSYMHWYQQKPGQPPKLLIYLASNLESGVPARFSGSGSGTDFTLNIHPVEEEDAATYYCQHNRELPCTFGGGTKLEIK
notes: also called anti-SIRPA antibody 3F9; glycosylated 3F9
What is called Kd is a measure of binding affinity in units of concentration. What is called koff is the rate constant with which the complex falls apart. In general, kon refers to the second-order rate constant of association. One may read the EC50 (read off the curve) as the concentration at which the effect is half-maximal. Broadly, the EC50 is the concentration needed to bring the measured effect to its halfway point. A higher EC50 goes with a less potent agent. Consider B1, for which, in experiment [3], the Kd is 10 nM, the off-rate (koff) was 0.00057 s⁻¹ and the kon was found to be 55000 M⁻¹ s⁻¹. Besides, in experiment [4], the “phagocytic activity of treated macrophages (FIG. 8C)” value was determined as 2 fold and the “phagocytosis of labeled Raji cells: CD14+/pHrodo+ macrophages over isotype-treated macrophages” value came to 2.5 fold. The “MFI, fold over background” value in experiment [1] turned out to be 0.998 fold over background. In addition, the concentration for a half-maximal effect (EC50 (read off the curve)) in experiment [5] was roughly 1 nM. Moreover, it took 2.6 nM to reach a half-maximal effect in experiment [6] (EC50). The “MFI, fold over background” value in experiment [2] is 137 fold over background. For the same molecule, the binding result in experiment [7] is “no binding (tested: 1.0 pg/ml (so in the source))”.

B2: deglycosylated 3F9 (antibody, IgG1, V domains shown)
VH: EVKLVESGGGLVKPGGSLKLSCAASGFTFSSYAMSWVRQTPEKRLEWVATISDYGGSYTYYPDSVKGRFTISRDNAKYTLYLQMSSLRSEDTALYYCARPPYDDYYGGFAYWGQGTLVTVSA
VL: DIVLTQSPASLAVSLGQRATISCRASKSVSSSGYSYMHWYQQKPGQPPKLLIYLASNLESGVPARFSGSGSGTDFTLNIHPVEEEDAATYYCQHNRELPCTFGGGTKLEIK
modifications: Fc-linked glycan removed with EndoS (on the heavy chain constant region, which is not given)
notes: also called deglycosylated 3F9 variant; deglycosylated form of 3F9
In the case of B2, the “EC50 (read off the curve)” value in experiment [5] was roughly 1 nM.

B3: 9C2 (antibody, IgG1, V domains shown)
VH: EFQLQQSGAELVKPGASVKISCKASGYSLTGYNMNWVKQSRGKSLEWIGNINPHYGSSTYNQNFKDKATLTVDKSSSAAYMQFNSLTSEDSAVYYCAREGYDGVFDYWGQGTTLTVSS
VL: QIVLSQSPAILSASPGEKVTMTCRASSSVSYMHWYQQKPGSSPKPWIYVTSNLASGVPTRFSGSGSGTSYSLTISRVEAEDAATYYCQQWSSNPRTFGGGTKLEIK
notes: also called anti-SIRPA antibody 9C2; 9C2-DyLight 650
Consider B3, for which, in experiment [3], the Kd came to 80 nM, the koff was determined as 0.0045 s⁻¹ and the kon is 54000 M⁻¹ s⁻¹. The “phagocytosis of labeled Raji cells: CD14+/pHrodo+ macrophages over isotype-treated macrophages” value in experiment [4] amounted to 1.5 fold. In experiment [1], the “MFI, fold over background” value was 0.981 fold over background. The concentration for a half-maximal effect (EC50) in experiment [6] came out at 1.6 nM. Moreover, the “MFI, fold over background” value in experiment [2] was determined as 128 fold over background. In addition, the binding result in experiment [7] is “no binding (tested: 1.0 pg/ml (so in the source))”.
